Experimental findings from PMC9908020, “Structural basis of the transcription termination factor Rho engagement with transcribing RNA polymerase from Thermus thermophilus” (Science Advances, 2023) are described below.

The labels stand for the following.
B1: Thermus thermophilus transcription termination factor Rho (enzyme)
chain: MRRKETLQETPLTYQELASKILPELHLLAQEAGIEGYKRMKKDQLIMALLERQTQGEGLRLVKGYLEISQDGYGFLTENLHNLESRVAIVSAGLIKQYALRAGDYVVGQARPPRENERYATLLKVEAVNNLDPEAAKNRPRFDELTPQFPDRQIRLETTPDELSTRVIDLLAPIGRGQRGLIVAPPKAGKTTLLKKIANAVLKNEPDIKVIVLLIDERPEEVTDFRESVQGAEVIASTFDEPPQNHIRVAEFVHERAKRIVEEGGHVMILLDSITRLARANNLVTPPTGRTLSGGLDSAALYFPKRFLGAARNIRGGGSLTILATALVETGSRMDDVIFEEFKGTGNMELHLSRRLEERRIFPAIDILKSGTRREELLLGEEVTHKMWLLRKVLADMDPAEAMEMLLARLARTKNNKEFLASLAAR
notes: Transcription termination factor Rho, Thermus thermophilus; the C terminus is printed as Arg426; the model leaves out 59 residues at the N terminus; Closed-ring homo-hexamer with ADP·BeF3 at the protomer interfaces; RNA is threaded through the central channel in the RNAP complexes; also called wild-type Rho; Rho hexamer; not shown: His tag, N-terminal, cleaved

Data set [1] has as its target T1, T. thermophilus Rho (Thermus thermophilus, UniProt Q5SJE9).
T1 construct: full-length (C terminus Arg426), N-terminal His-tag cleaved by HRV 3C; pET-47b in E. coli Rosetta2 (DE3); closed-ring homohexamer; model lacks 59 N-terminal residues
The experiment in a line: Rho-dependent RNA release from immobilised RNAP elongation complex, urea-PAGE. Type of data set: biochemical. The conditions noted are these: 1 mM ATP, 200 nM Rho, 10 mM MgCl2, pH 7.5, 65 °C; with T. thermophilus RNAP elongation complex.

Data set [2] deals with T2, Thermus thermophilus RNA polymerase lacking the β-flap tip helix (Thermus thermophilus, UniProt Q5SHR6 1-315; Q8RQE9 1-761; Q8RQE9 783-1119; Q8RQE8 1-1524; Q8RQE7 1-99).
T2 construct: RNA polymerase α subunit, Thermus thermophilus; RNA polymerase β subunit, Thermus thermophilus, up to the residue before the deleted β-flap tip helix (β762 to β782 removed); three alanine residues that fill the gap; RNA polymerase β subunit, Thermus thermophilus, from the residue after the deleted β-flap tip helix; RNA polymerase β′ subunit, Thermus thermophilus; RNA polymerase ω subunit, Thermus …
Nature of the data set: cryo-EM structure; EC-Rho complex prepared with the β-flap tip-deleted RNAP; 2D class averages of ~3000 particles of the RNAP-Rho complex. The settings on record: both partners purified.

Data set [3] has as its target T3, Thermus thermophilus RNA polymerase β subunit (Thermus thermophilus, UniProt Q8RQE9 1-1119).
T3 construct: RNA polymerase β subunit, Thermus thermophilus; It stood in the assay as a subunit of the RNAP complex m2; source: E. coli Rosetta2 (DE3), coexpressed and purified as part of RNAP
Nature of the data set: cryo-EM structure; type 1 class: EC (RNAP with template DNA and 125-nt nascent RNA, gel filtered) mixed with Rho and 0.5 mM ADP·BeF3 in buffer C (20 mM Hepes-NaOH pH 7.5, 250 mM KCl, 5 mM MgCl2, 1% glycerol), cross-linked with 3 mM BS3; nascent RNA threaded into the Rho ring. The conditions noted are these: both partners purified.

Data set [4] concerns the target T4, Thermus thermophilus RNA polymerase β′ subunit (Thermus thermophilus, UniProt Q8RQE8 1-1524).
T4 construct: RNA polymerase β′ subunit, Thermus thermophilus; It stood in the assay as a subunit of the RNAP complex m2; source: E. coli Rosetta2 (DE3), coexpressed and purified as part of RNAP
Described as above. The conditions noted are these: both partners purified.

Data set [5] concerns the molecule itself. Nature of the data set: cryo-EM structure; Rho-only class of the same sample: closed-ring hexamer with ADP·BeF3 between the protomers; C6 symmetry.
Data set [6] has as its target B1. Nature of the data set: cryo-EM structure; type 1 class: EC (RNAP with template DNA and 125-nt nascent RNA, gel filtered) mixed with Rho and 0.5 mM ADP·BeF3 in buffer C (20 mM Hepes-NaOH pH 7.5, 250 mM KCl, 5 mM MgCl2, 1% glycerol), cross-linked with 3 mM BS3; nascent RNA threaded into the Rho ring. The settings on record: both partners purified.

With `Nc1ncnc2c1ncn2[C@@H]1O[C@H](COP(=O)(O)OP(=O)(O)OP(=O)(O)O)[C@@H](O)[C@H]1O` [ATP], the “Rho-dependent RNA release from immobilised RNAP elongation complex, urea-PAGE” value in data set [1] is on record as “The RNA release is ATP dependent, as it did not occur in either the absence”.

By stoichiometry N is commonly meant the number of molecules, sites or subunits per partner or assembly. In the case of B1, the binding result in data set [2], in data set [3] and in data set [4] was “binds” in each case. Further, the “stoichiometry N” value in data set [5] worked out at 6.

B2: Thermus thermophilus RNA polymerase ω subunit (natural protein)
chain: MAEPGIDKLFGMVDSKYRLTVVVAKRAQQLLRHGFKNTVLEPEERPKMQTLEGLFDDPNAVTWAMKELLTGRLVFGENLVPEDRLQKEMERLYPVEREE
notes: RNA polymerase ω subunit, Thermus thermophilus; It stood in the assay as a subunit of the RNAP complex m2; It was cloned in pET-47b, which may add a cleavable N-terminal His tag (surmise); source: E. coli Rosetta2 (DE3), coexpressed and purified as part of RNAP
Turning to B2, the binding result in data set [6] was “binds”.
